{"source": "paper PMC4570275", "molecular_target": "Glucocorticoid-induced TNFR-related protein (GITR) (mouse (endogenous in CD4+ T cells of mice)) (UniProt O35714)", "sequence (O35714 20-228)": "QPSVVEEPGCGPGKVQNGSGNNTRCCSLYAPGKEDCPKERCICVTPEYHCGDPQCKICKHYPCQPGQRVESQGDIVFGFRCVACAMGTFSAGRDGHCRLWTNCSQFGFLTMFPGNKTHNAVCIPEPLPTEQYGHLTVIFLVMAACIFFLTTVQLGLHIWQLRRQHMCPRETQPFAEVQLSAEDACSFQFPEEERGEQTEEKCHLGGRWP", "data": [{"substance": "His-tagged recombinant mouse GITR Ligand (from UniProt Q7TS55 1-173)", "values": [{"measurement": "percent Foxp3+ T cells by flow cytometry: OT-II CD4+ T cells activated with OVA and autologous APCs, TGF-β and IL-2, 3 days; >60% without GITR stimulation", "result": 10, "unit": "%"}, {"measurement": "percent Foxp3+ T cells by flow cytometry: WT B6 naive CD4+ T cells activated 3 days under iTreg-polarizing conditions with His-GITR Ligand (200 ng/ml plus anti-His mAb); ∼65% without GITR ligation", "result": 4, "unit": "%"}, {"measurement": "percent IL-9+ Th9 cells by flow cytometry: WT B6 naive CD4+ T cells activated 3 days under iTreg-polarizing conditions with GITR ligation", "result": 30, "unit": "%"}]}]}
